The record followed here is the nanobody polyreactivity screen of Harvey et al. (2022).

This series can be described thus: yeast display, Sf9 membrane polyspecificity reagent, FACS + sequencing; frameworks hold sequencing errors. The method, boiled down: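 Galactose-induced (36–48 hours) yeast carrying a synthetic nanobody display library were exposed to 10% biotinylated, detergent-solubilized Sf9 membrane reagent at 4 °C for 1 hour. FACS followed streptavidin microbead enrichment, using low and high (top ~1%) gates for expression (anti-HA) and reagent binding (streptavidin). Colony PCR, MiSeq 2 × 250 sequencing and CDR-length filtering followed. Labels for polyreactivity reflect the gate of origin.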
With “QVQLVESGVGLVQAGGSLRLSCAASGNIITTYAMGWYRQAPGKERELVAAISRTGGRTSYADSVKGRFTISRDNAKNTVYLQMNSLKPEDTAVYYCAAVQTVRQSAPRARILSDYWGQGTQVTVSS”, the “polyreactivity (PSR sort gate)” value is recorded as “high polyreactivity”.

As to “QVQLVESGGGLVQAGGSLRLSCAASGRIFPLYDMGWYRQAPGKERELVAAISSGGTTYYADSVKGRFTISRDNAKNTVYLQMNSLKPEDTEVYYCARRPAQRWGRFDYWVQGTQVTVSS”, the “polyreactivity (PSR sort gate)” value is “low polyreactivity”.

“QVQLVESGGGLVQAGGSLRLSCAASGSIFPRNAMGWSRQAPGKERELVARINSGGTTKYADSVKGRFTISRDNAKNTVYLQMNSLKPEDTAVYYCNADTYILDPLRKSYGYDYWGQGTQVTVSS”: the “polyreactivity (PSR sort gate)” value was “low polyreactivity”.

On to “QVQLVESGGGLVQAGGSLRLTCAASGIIFRLNAMGWYRQAPGKERELVAAIRRRGGSTYYADSVKGRFTISRDYAKNTVYLQMNSLKPADTAVYYCAKEPDGSDFGYWGQGTQVTESS”, for which the “polyreactivity (PSR sort gate)” value is “low polyreactivity”.

Turning to “QVQLVESGGGLVPAGGSLRLRCAASGSTFPYYAMGGYRQAPGKERELVAAIRRSGANTYYADSVKGRFTISRDNAKNTVYLQMNSLKPEDTAVYYCNVEYVISWWLYDYWGQGTQVTVSS”, the “polyreactivity (PSR sort gate)” value is “low polyreactivity”.

In the case of “QVQLVESGGGLVQAGGSLRLSCAASGRIFDIYAMGWSRQAPGKERELVAAIDESGGSTYYADSVKGRFTISRDNAKNTVYLQMNSLKPEDTAVDYCATDDTWTIAYGWYWFTYEYWGQGTQVTVSS”, the “polyreactivity (PSR sort gate)” value was “low polyreactivity”.

In the case of “QVHLVESGGGLVQAGGSLRLSFAASGYTLSDNAMGWYRQAPGKERELVATIDFGGGSTYYADSVKGRFTISRDNAKNTVYLQRNSLKPEDTAVYYCNTEWTSLSTSSLGGRYDHWGQGTQVTVSS”, the “polyreactivity (PSR sort gate)” value is reported as “low polyreactivity”.

Regarding “QVQHVESVGGLVQAGGSLRLSCAASGSIFSNNVMGWYRQAPGKERELVAAITVSGGRTYYADSVKGRFTISRDNAKNSVYLQMNSLKPEDTAVYYCATGVWKYSPDGDVGDQLSGYDYWGQGTQVTVSS”, the “polyreactivity (PSR sort gate)” value was “low polyreactivity”.

As for “QVQLVETGGGLVQAGGSLRLSCAASGLTIHPYAKGCYRQAPGKERELVAAISSRGTSTYYADSVKGRFTISRDNAKNTVYLQMNSLKPEDTAVYYCAARHGPRAEAMYYWGQGTQVTVSS”, the “polyreactivity (PSR sort gate)” value was “high polyreactivity”.

With “QVQLVESGGGVVQAGGSLRLTCAASGIIFYRYSMGWYSQAPGKERELVAAISIGGGSTYYADSVKVRFTISRYNAKNTVYLEMNSLKPEDTAVYYCAADTYNYVGYNGHDYWGQGTQVTVSS”, the “polyreactivity (PSR sort gate)” value is on record as “low polyreactivity”.

Consider “QVQLVESGGGLVQAGGSLRLSCAASGRTLTYNVMGWYRQAPGKERELVASISSSGSSTHYADSVKGRFTISRDNAKNTVYLQMNSLKPEDTAVYYCAVEFWRPFWTRFDYWGQGTQVTVSS”, for which the “polyreactivity (PSR sort gate)” value is listed as “high polyreactivity”.

As to “QVQLVESGGGLVQAGGSLRLSCAASGYILQINAMGWYRQAPGKERELVAAISISGGNTYYADSVKGRFTISRDNAKNTVYLQMNSLKPEDTAVYYCNAGGPLQPYDYWGQGTQVTVSS”, the “polyreactivity (PSR sort gate)” value is “low polyreactivity”.

In the case of “QVQLVQSGAGLVQAGGSLRLSCAPSGRTFWRYPMGLYRQAPGKERELVASISARGGSTYYADSVKGRFTISRDNAKNTVYLQMNSLKPEDTAVYYCKRQSWFTVGGFTYRYDYWGQGTQVTVSS”, the “polyreactivity (PSR sort gate)” value is “high polyreactivity”.

In the case of “QVQLVESGGGLVQAGGSLRLSCAASGSIFSSYAMGWYRPAPGKERELVAAITRTGGRTYYADSVKGRFTISRDNAKNTVYLQMNSLKPEDTAVYYCAAKQVSRGVAAYDYWGQGTQVTVSS”, the “polyreactivity (PSR sort gate)” value is “high polyreactivity”.

In the case of “QVQLVESGGGLVQAGGSLSLSCAASGSTFDRNAMGWYRQAPGKERELVAGISFSGGSTYYADSVKGRFTISRDNAKNTVYLQMNSLKPEDTAVYYCAASTYQPGAVPFDYWGQGTQVTVSS”, the “polyreactivity (PSR sort gate)” value is given as “low polyreactivity”.

As for “QVQLVESGGGLVQAGGSLRLSCAASGFTFYGYGMGWYRQAPGKERELVAVITSGGSTKYADSVKGRFTISRDNAKNTVDLQMNSLKPEDTAVYYCNVVGGRYLYSAYDYWGQGTQVTVSS”, the “polyreactivity (PSR sort gate)” value is given as “low polyreactivity”.
